{"source": "patent US8247352B2", "about": "“Method of inhibiting ethylene production in plants” (The Regents of the University of California, priority 2005, dated 2012)", "experiment_in_all_cases": "Initial velocity assays (rate of oxygen consumption) with ACC or substrate analogs", "format_in_all_cases": "biochemical, Lycopersicon esculentum", "conditions_in_all_cases": "other: O2 consumption, 25° C., pH 7.2, [Ascorbate] = 30 mM, [O2] = 258 μM, [CO2/bicarbonate] = 20 mM", "key": {"[1]": {"substrate": "C[C@@H](N)C(=O)O", "protocol": "(§1) Initial velocities were measured by the rate of oxygen consumption at 25° C., pH 7.2, using a YSI model 5300 biological oxygen monitor as previously described (Thrower 2001) with minor modifications. Standard reaction mixture (1 ml) contained 100 mM MOPS, pH 7.2, 20 mM NaHCO3, 100 mM NaCl, 20 mM sodium ascorbate, 0.1 mg/ml BSA, and ACC or substrate analog at various concentrations. Oxygen concentrations were kept at atmospheric concentration and determined using the oxygen monitor that was calibrated with air saturated water (258 μM oxygen at 25° C.). Reactions were initiated with 2 μL ACCO reconstituted with equimolar Fe(NH4)2(SO4)2. Data from initial velocity experiments with varying substrate concentrations were fitted to the Michaelis-Menton equation using the program Kalideograph.\n(§2) The dependence of the initial velocity of oxygen consumption by ACCO:Fe(II) on the concentration of ACC or several substrate analogs was determined (Table 1). Either cyclic substrate analogs (including inhibitor Me-ACC, ACC-NH2, or ACC-OMe) or acyclic substrate analogs (AIB, D-Ala, or Gly) were used. […] Ascorbate and oxygen concentrations were kept constant at 30 mM and ˜258 μM, respectively."}, "[2]": {"substrate": "NC1(C(=O)O)CC1", "protocol": "as §1, §2"}, "[3]": {"substrate": "CC(C)(N)C(=O)O", "protocol": "as §1, §2"}}}
{"protein": "ACC Oxidase (ACCO, ACO1) (Solanum lycopersicum) (protein, made in house; host or cells: Escherichia coli BL21 (DE3)pLysS) MENFPIINLEKLNGDERANTMEMIKDACENWGFFELVNHGIPHEVMDTVEKMTKGHYKKCMEQRFKELVASKGLEAVQAEVTDLDWESTFFLRHLPTSNISQVPDLDEEYREVMRDFAKRLEKLAEELLDLLCENLGLEKGYLKNAFYGSKGPNFGTKVSNYPPCPKPDLIKGLRAHTDAGGIILLFQDDKVSGLQLLKDEQWIDVPPMRHSIVVNLGDQLEVITNGKYKSVLHRVIAQTDGTRMSLASFYNPGSDAVIYPAKTLVEKEAEESTQVYPKFVFDDYMKLYAGLKFQAKEPRFEAMKAMESDPIASA", "values": [{"measurement": "Km", "setting": "[1]", "value": "4.42 ± 0.49", "unit": "mm"}, {"measurement": "kcat", "setting": "[1]", "value": "0.497 ± 0.015", "unit": "s⁻¹"}, {"measurement": "Km", "setting": "[2]", "value": "0.099 ± 0.018", "unit": "mm"}, {"measurement": "kcat", "setting": "[2]", "value": "0.607 ± 0.0233", "unit": "s⁻¹"}, {"measurement": "Km", "setting": "[3]", "value": "0.92 ± 0.29", "unit": "mm"}, {"measurement": "kcat", "setting": "[3]", "value": "0.368 ± 0.0267", "unit": "s⁻¹"}]}
